# Source: the nanobody polyreactivity screen of Harvey et al. (2022)
# Assay: yeast display, Sf9 membrane polyspecificity reagent, FACS + sequencing; frameworks hold sequencing errors
# Method in brief: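 Nanobodies came from a synthetic yeast display library in Saccharomyces cerevisiae BJ5465, induced with galactose for 36–48 hours and stained for 1 hour at 4 °C with 10% biotinylated, detergent-solubilized Sf9 membrane reagent. Cells were enriched on streptavidin microbeads and then FACS-sorted, with low and high (top ~1%) gates set on anti-HA fluorescence for expression and streptavidin fluorescence for reagent binding. Each polyreactivity label reflects the gate a clone came from. Genes were amplified by colony PCR, sequenced by MiSeq 2 × 250 and filtered by CDR length.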
row,Sequence,polyreactivity (PSR sort gate)
1,KVQLVESGGGLVQAGGSLRLSCAASGRIFRYYAMGWSRQAPGKERELVAAISRGGGSTYYADSVKGRFTISRDNAKNTVYLQMNSLKPEDTAVYYCANSVGRGPIGYDYWGQGTQVTVSS,high polyreactivity
2,QVQLVESGGGLVQAGGSLRLSCAASGIIFFDYAMGWYRQAPGKERELVAAITSSGGSTYYADSVKGRFTISRDNAKNTVYLQMNSLKPEDTAVYYCAAATRGSGRRNDYWGQGTQVTVSS,high polyreactivity
3,QVQLVESGGGLDQAGGSLRLSCADSGSLSDWNAMVSYRQAAGKEREWVAAINWSGDTTYYADSVKGRFTISRDNAKNTFYLQMNCLNPEDTAVYYCAAELVVDYDWYDYWGQGTQVTVSS,high polyreactivity
4,QVQLVESGGGLVQAGGSLRLSCAASGRTFFSFNAMVWYRQPPGKERELVAAIDGDGGITYYADSVKGRFTISRDNAKNTVYLQMNSLKPEDTAVYYCAAETLYSSAGEDDYWGQGTQVTVSS,low polyreactivity
5,QVQLVESGGGLVQAGGSLRLSWAASGSISGFNAMGWYRQAPGKERELVAAISYSGGRTYYADSVKGRFTISRDNAKNNVYLHMNSLKPEDTAVFYCAADKFMYSKYTVFRDVYWGQGTQVTLSS,high polyreactivity
6,QVQLVESGGGLVQAGGSLRLSCAASGGPFYTYTMGWYRQAPGKERELVAAISFSDASTYYADSVKGRFTISRDNAKNTVFLQMNSLKPEDTGVYYCNAGVLQWVYYPFDYWGQGTQVTVSS,low polyreactivity
7,QVQLVESGGGLVQAGGSLRLSCAASGRIFGTNAMGWYRQAPGKEREMVATITRGGGNTYYADSVKGRFTISRDNAKNTVYLQMNSLKPEDTAVYYCAAKFHRFAWFSHYDYWGQGTQVTVSS,low polyreactivity
8,QVQLVVSGGGLVQAGGSLRLSCAASGSTIASNAMGWYRQAPGKERELVAGISSSDGGTYYADSVKGRFTISRDNAKNNVYLEMNSLKREDTAVYYCNAPPGTFQWQGHSDYWGQGTQVTVSS,low polyreactivity
9,QVQLVESGGGLVQAGGSLRLSCAASGLTFIVYAMGWYRPAPGKERELVADITWSGGSTYYADSLKGRFTISRDNAKNTVYLQMNSLKPEATAVYYCNRQSAKIMDYWGQGTQVTVSS,low polyreactivity
10,QVQLVESGGGLVQAGGSVRLSFAASGSSIFGNFMGWYRQAPGKERELVAGITNRGGSTYFADSVKGRFTISRDNAKITVYLQMNSLKPEDTAVYYCAARKNHSGYGRGNYWGQGTQVTVSS,high polyreactivity
11,QVQLQESGGGLVQAGGSLRLSCAASGSISILQSMGWYRQAPGKERELVAGINWGATTYYADSVKGRLTTSRDYAKNTVYLQLNSLKPEDTGVYYCAFQTYFTYPLLYWGQGTQVNVSS,low polyreactivity
12,QVQLLESGGGLVQAGGSLRLSCAASGSIFYLYAMGWYIQAPGKERELVAVIRRGGSTKYADSVKGRFTISRDNSKNSVYLQMNSLKPEDTAVYDCNVVGYAYGWQYDYWGQGTQVNVSS,high polyreactivity
13,QVQLVESGGGLVQAGGSLRLSCAASGFIFWGNAMGWYRQAPGKERELVAAITYSGDRTYYADSVKGRFTISRDNAKNTVYLQMNSLKPEDTAVYYCNADLALRSRYGEYDYWGQGTQVTVSS,high polyreactivity
14,QVQLVESGGGLVQAGGSLRLSCAASGRIFGVYAMGWYRQAPGKERELVAAIRGDGSTNYADSVKGRFTISRDNAKNTVYLQMNSLKPEDTAVYYCATDLGIYSGSPWGYYYWGQGTQVTVSS,low polyreactivity
15,QVQLVESGGGLVQAGGSLRLSCAASGSTFSIYTMGWYRQAPGKERELVAAITRGGSTYYADSVKGRFTISRDNAKNTVYLQMNSLKPEDTAVYYCAADYVSYYRGGRYIELDYWGQGTQVTVSS,low polyreactivity
16,QVQLVESGGGLVQAGGSLRLSCAASGRIFYAYTMGRSRQAPGKERELVAAISGSGSTYYADSVKGRFTISRDNAKNTVYLQMNSLKPEDTAVYYCAADVTGGRKYDYWGQGTQVTVSS,low polyreactivity
17,QVQLVESGGGLVQAGGSLRLSCAASGRTFYVNAMGWYRQAPGKERELVAGISFSDGSTYYADSVKGRFTISRDNAKNTVYLQMNSLKPEDTAVYYCASVGAFDIYYGYGYWGQGTQVTVSS,low polyreactivity
18,QVQLVESGGGLVQAGGSLRISCAASGIFPAYDMGWYRQAPGKERELVASISSDGSTYYADSVKGRFTISRDNAKNTVYLQMNSLKPEDTAVYYCNDVAIEPYYYVVYDIFDYWGQGTQVTVSS,low polyreactivity
19,QVQLVESGGGLVQAGGSLRLSCAASGSTFHSYAMGWYRQAPGKERELVAGITWGGGTYYADSVKGRFTISRDNAKNTVYLQMNSLKPEDTAVYYCAALSYVGSNVYTGAPAAPYDYWGQGTQVTVSS,low polyreactivity
20,QVQLVETGAGLVQAGGRLRLSCDSSGSTFYVYYMGWYRQSPGKERELVAAISSGAGSTYYADSVKGRFTISRDNAKNTVYLQMNSLTRKIPRSSTALLFTVNGGGSRSHDYWAQGTQVTVSS,low polyreactivity
21,QVQLVESGGGLFHAGGSLRLSCAASGSTFTDDDMGWYRQAPGKERELVAAMSWSGGSTYYADSVKGRFTISRDNAKNTVYLQMNSLKPDDTADYYCAFRYHGYDYWGQGTQVTVSS,high polyreactivity

row,Sequence,polyreactivity (PSR sort gate)
1,QVQLVESGGGLVQAGGSLRLSCASSGRTVGYNAMGWSRQPPGKEREFVAAITWSGGRTYYADSVKGRFTISRDNAKNTVYLLMNSLKPEDTAVYYCAIDGYWDFDYWGQGTQVSVSS,low polyreactivity
2,QVQLVDSGGGVVQAGGSLRLSCPASGIILRRYAMGWYRQAQGKERELVARISYRGGRTNYADSVKGRFTISRDNAKNTVYLQMNSLKPEDTAVYYCAAVAWDYHEGTAYNYWGQGTQVTVSS,high polyreactivity
3,QVQLVETGGGLVQAGGSLGLSCDASGRIFDYYSMGWYRQATGKERELVASITRGGITYYADSVKGRFTISRDNAKNTVYLQMNSLKPEDTAVYYCADGLRWRRTYGYWGQGTQVTVSS,high polyreactivity
4,QVQLVESGGGLVQAGGTLRLSCAASGRIFTINAMGWYRQAPGKEREFVAAISGSGGTTYYADSVKGRFTISRDNAMNTVYLQMNSLKPEDTAVYYCAVSQSWYWYYASDYWGQGTQVTVSS,low polyreactivity
5,QVHLVESGGGLVQAGGSLRLSCAASGRTFREYFMGWYRQAPGQERELVAVISWSTGSTYADSVKGRFTISRDNAKNTVYLQMNSLKPEDTAVYYCARRVQSLRNVVIYNYWGQGTQVTVSS,low polyreactivity
6,QVQLVESGGGLVQAGGSLRLSCAASGSIFFRYAMGWYRQAPGKERELVAGITYSSGSSTYADSVKGRFTISRHNAKNTVYLQMNSLKPEDTAVYYCAAAYRFPGNRYDYWGQGTQVTVSS,low polyreactivity
7,QVQLVESGGGLVQAGGSLRLSCAASGFIFRRNTMGWYRQAPGKERELVAVITWSGGRTYYADSVKGRFTISRDNAKNTVYLQMNSLKPEDTAVYDCTAEQWWSLDYWGQGTQVTVSS,low polyreactivity
8,QVQLVESGGGLVQAGGSLRLSCAASGLIFWGYTMGWYRQAPGKEREFVAAISKSAGSTFYADSVKGRFTISRDNAKNTVYLQMNSLKPEDTAVYYCATGGFPGARVAYDYYYWGQGTQVTVSS,low polyreactivity
9,QVQLVESGGGLVQAGGSLRLSCAASGSTWNRNPMGWYRQAPGKERELVAAISWRGDSTSYADSVKGRFTISRDNAKNTVYLQMNSLKPEDTAVYYCATAHDYAFYRYWYVPSEYNYWGQGTQVTVSS,low polyreactivity
10,QVQLVESGGGLVQAGGILRLSCAASGRTFGIYVMGWYRQAPGKERELVAAIRSGGTTNYADTVKGRFTISRDNAKNTVYLKMNSLKPEDTAVYYCAASSRRSWTYDYWGQGTQVTVSS,high polyreactivity
11,QVQLVESGGALVQAGGSLRLSCAASGIIFGGYALGWYRQEPGKERELVAAISCGGSTNYADSVKGRFTISRDNAKNTVYLQMNSLKPEDTSVYYCAADSASSYSYNYWGQGSQVTVSS,low polyreactivity
12,QVQHVESGGGLVQAGGSLRLSCAASGSTFTSYALGWYRQAPGKERELVAAISKSGGSTYYADSVKGRFTISRDNAKNTVYLQMNSLKPEDTSVYYCAASYNVRSYSTSRFDYWGQGTQVTVSS,low polyreactivity
13,QVQLVESGGGLVQAGGSLRLSCAASGSIFTVYAMGWYRQAPGKERELVAVINYRGGNTYYADSVKGRFTISRDNAKNTVYLQMNSLKPEDTAVYYCATEVSWHWYQLSVPRMDYWGQGTQVTVSS,low polyreactivity
14,QVQLVESGGGLVQAGGSLRLSCAASGFTISRYAMGWYRQAPGKERELVAAITWSGVSTYYADSVKGRFTISRDNAKNTVYLQMNSRKPEDTAVYYCAATTYSSSSSHDYWGQGTQVTVSS,low polyreactivity
15,QVQRVESGGGLVQAGGSLLLSCAASGRTFRPYTMGWYRQAPGTERELVARITSGGSTNYADSVKGSFTISRDNAKNTVYLQMNSLKPEDTAVYYCNKPGDRHRLDEDYWGQGTQVTVSS,low polyreactivity
16,QVQLVESGGGLVQAGGSLRLSCADSGRIFYYYTMGWYRQAPGKERELVARINSSGSTNLRRLCEGALHNFTRQCEEYRLFTDEQPETGRYRVYYCNADTKRSSREYDYWGQGTQVTVSS,low polyreactivity
17,QVQLVESGGGLVQAGGSLRLSCAASGFIFPLYTMGWYRQAPGKEREVVAAISWIGGRTYYADSVKGRFTISRDFAKNTVYLQMISLKPEDTAVYFCGKDPSGGGYGYDYWGQGTQVTVTS,low polyreactivity
18,QVQLVESGGGLVQAGGSLRLSCAASGRIFTGYAMGWYRQAPGKEREVVAAISRGGSTNYADSVKGRFTISRDNAKNTVYLQMNSLKPEDTAVYYCAAGVHWDRGDYWGQGTQVNVSS,low polyreactivity
19,QVPLVESGGGLVQAGGSLRLSCAASGLIFTGYAMGWYRQAPGKEREVVAAITSAGSTNYADSVKGRFTISRDNAKNTVYLQMNSLKPEDTAVYYCGASRTTTFSWYYLYYLVSKYYYWGQGTQVTVSS,low polyreactivity
20,QVQLVESGGGLVQAGGSLRLSCAASGSTFGNYAMGGYRQAPGKERELVAVSTSAGSTYYADSVKGRFTISRDNAKNTVYLQMNSLKPEDPAVYYCNTGKHVRYYYWGQGTQVTVSS,low polyreactivity
